Target: T1, Developmental Pluripotency Associated 2 (DPPA2), endogenous (human (endogenous in NCI-H661), UniProt Q7Z7J5 1-298)
T1 construct: DPPA2, human, endogenous in NCI-H661 non-small cell lung cancer cells; source: endogenous, NCI-H661 whole cell lysate
T1 sequence (looked up): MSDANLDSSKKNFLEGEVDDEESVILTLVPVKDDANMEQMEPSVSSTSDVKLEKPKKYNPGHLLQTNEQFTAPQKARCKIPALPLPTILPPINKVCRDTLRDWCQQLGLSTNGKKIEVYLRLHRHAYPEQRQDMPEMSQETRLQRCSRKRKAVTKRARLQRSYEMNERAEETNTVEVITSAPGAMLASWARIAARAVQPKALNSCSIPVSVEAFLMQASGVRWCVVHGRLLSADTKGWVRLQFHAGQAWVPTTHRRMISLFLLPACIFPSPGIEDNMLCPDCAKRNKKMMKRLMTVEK
Assay: affinity purification with mass spectrometry; endogenous DPPA2 or DPPA4 immunoprecipitated from NCI-H661 whole cell lysates (n=4 per condition); enrichment against species matched IgG IP by label-free quantitation; relative iBAQ for stoichiometry
Settings: partners not purified

B1: Developmental Pluripotency Associated 4 (DPPA4), endogenous (natural protein, human (endogenous in NCI-H661), UniProt Q7L190 1-304, looked up)
chain: MLRGSASSTSMEKAKGKEWTSTEKSREEDQQASNQPNSIALPGTSAKRTKEKMSIKGSKVLCPKKKAEHTDNPRPQKKIPIPPLPSKLPPVNLIHRDILRAWCQQLKLSSKGQKLDAYKRLCAFAYPNQKDFPSTAKEAKIRKSLQKKLKVEKGETSLQSSETHPPEVALPPVGEPPALENSTALLEGVNTVVVTTSAPEALLASWARISARARTPEAVESPQEASGVRWCVVHGKSLPADTDGWVHLQFHAGQAWVPEKQEGRVSALFLLPASNFPPPHLEDNMLCPKCVHRNKVLIKSLQWE
notes: DPPA4, human, endogenous in NCI-H661 non-small cell lung cancer cells; source: endogenous, NCI-H661 whole cell lysate
ratio between DPPA2 and DPPA4 (relative iBAQ) in the DPPA2-IP: > 1
